Experimental data reported in the Human Domainome abundance scans (Beltran et al. 2025).
± gives the uncertainty stated by the source.

B1: SWI/SNF-related matrix-associated actin-dependent regulator of chromatin subfamily B member 1, residues 181 to 248; numbered along this chain, Q12824 (parent)
chain: SQPEVLVPIRLDMEIDGQKLRDAFTWNMNEKLMTPEMFSEILCDDLDLNPLTFVPAIASAIRQQIESY

Variants of: B1
Test: abundance fitness (aPCA) (normalised: wild type 0, dead -1); higher = more abundant; growth selection in yeast, the domain comes from the species named
Settings: Homo sapiens

Variant | abundance fitness
C43N | -1.03 ± 0.19
C43H | -0.956 ± 0.15
D12S | -0.474 ± 0.21
D12G | -0.264 ± 0.5
D12E | -0.078 ± 0.15
I9N | -0.742 ± 0.25
I9F | -0.791 ± 0.23
I9R | -1.03 ± 0.23
I9A | -0.784 ± 0.11
R10P | -0.386 ± 0.27
R10M | -0.273 ± 0.28
R10W | -0.196 ± 0.1
R10E | 0.065 ± 0.13
R10Q | 0.076 ± 0.083
I41H | 0.034 ± 0.061
I41L | -0.011 ± 0.036
I41C | -0.062 ± 0.061
I41Y | -0.057 ± 0.076
I41Q | 0.211 ± 0.06
I41F | -0.103 ± 0.092
I41V | 0.01 ± 0.04
I41S | 0.174 ± 0.033
I41A | 0.207 ± 0.04
I41M | 0.131 ± 0.048

Variant | abundance fitness
Q2H | -0.266 ± 0.16
S67W | -0.234 ± 0.083
S67N | 0.082 ± 0.063
S67E | -0.011 ± 0.074
S67R | 0.039 ± 0.035
S67M | -0.103 ± 0.13
S67A | 0.046 ± 0.072
S67V | -0.098 ± 0.058
S67G | -0.012 ± 0.039
A56V | -0.319 ± 0.052
A56P | -0.564 ± 0.16
A56Q | -0.095 ± 0.12
A56E | -0.134 ± 0.049
A56I | -0.375 ± 0.11
D44L | -0.251 ± 0.11
D44E | 0.309 ± 0.22
D44M | -0.473 ± 0.26
D44S | 0.043 ± 0.1
D44Q | -0.028 ± 0.11
R21P | -0.357 ± 0.14
R21E | -0.026 ± 0.085
R21S | -0.054 ± 0.055
R21I | 0.081 ± 0.094
R21Y | -0.227 ± 0.085

Variant | abundance fitness
R21V | 0.115 ± 0.04
R21M | -0.073 ± 0.085
N27Q | -0.685 ± 0.14
N27Y | -0.831 ± 0.28
N27C | -0.923 ± 0.31
N27H | -0.723 ± 0.17
N27W | -0.909 ± 0.25
N27S | -0.582 ± 0.31
N27G | -0.622 ± 0.22
N27M | -0.988 ± 0.36
F38L | -0.284 ± 0.17
F38W | -0.235 ± 0.21
L51E | 0.185 ± 0.089
L51V | 0.042 ± 0.11
L51D | 0.125 ± 0.18
L51H | 0.002 ± 0.083
E4I | -0.495 ± 0.17
E4W | -0.599 ± 0.1
E4A | -0.166 ± 0.062
E4P | -0.024 ± 0.062
E4S | -0.331 ± 0.062
E4D | -0.031 ± 0.088
E4M | -0.201 ± 0.074
E4G | -0.354 ± 0.17

Variant | abundance fitness
E4Q | -0.182 ± 0.075
M33R | -0.418 ± 0.046
M33Y | -0.421 ± 0.17
M33E | -0.794 ± 0.15
M33I | -0.104 ± 0.12
D45Q | -0.284 ± 0.48
D47L | -0.425 ± 0.056
D47K | 0.093 ± 0.063
D47C | -0.305 ± 0.057
D47G | 0.053 ± 0.038
D47P | -0.799 ± 0.16
D47Y | -0.401 ± 0.12
D47N | -0.107 ± 0.069
T34G | -0.686 ± 0.25
T34E | -0.388 ± 0.49
T34V | -0.35 ± 0.15
T34C | -0.831 ± 0.23
T34R | -0.876 ± 0.17
T34I | -0.848 ± 0.39
T34W | -0.615 ± 0.41
E14M | -0.065 ± 0.11
E14S | -0.071 ± 0.12
E14D | 0.026 ± 0.15
E14L | -0.299 ± 0.094

Variant | abundance fitness
E14W | -0.96 ± 0.25
E14H | -0.202 ± 0.18
N29V | -0.727 ± 0.21
N29S | -0.136 ± 0.28
N29D | -0.212 ± 0.24
N29K | -0.286 ± 0.096
G17W | -0.897 ± 0.14
G17C | -0.545 ± 0.12
G17R | -0.713 ± 0.071
G17M | -1.07 ± 0.27
G17P | -0.927 ± 0.29
G17S | -0.769 ± 0.13
G17D | -0.745 ± 0.18
G17E | -0.931 ± 0.18
R62F | -0.69 ± 0.37
R62T | -0.3 ± 0.053
R62S | -0.386 ± 0.054
R62C | -0.629 ± 0.15
R62Q | -0.192 ± 0.083
R62W | -0.75 ± 0.18
E66Q | -0.432 ± 0.18
E66D | -0.073 ± 0.045
E66P | -0.919 ± 0.44
E66S | -0.06 ± 0.039

Variant | abundance fitness
E66Y | -0.09 ± 0.068
P55T | 0.479 ± 0.38
V54R | -0.22 ± 0.16
V54M | -0.335 ± 0.28
S1Y | 0.088 ± 0.11
S1T | -0.09 ± 0.066
S1I | 0.238 ± 0.3
S1V | -0.048 ± 0.094
S1M | 0.127 ± 0.071
Y68P | -0.473 ± 0.13
Y68W | 0.165 ± 0.073
Y68Q | -0.185 ± 0.086
Y68C | -0.643 ± 0.21
Y68N | -0.384 ± 0.22
Y68I | -0.541 ± 0.14
Y68L | -0.536 ± 0.15
Y68D | -0.521 ± 0.12
L6T | -0.126 ± 0.082
L6A | -0.219 ± 0.24
L6R | -0.078 ± 0.06
L6H | -0.212 ± 0.13
L6G | -0.217 ± 0.089
L6S | 0.036 ± 0.06
S39P | -0.685 ± 0.38

Variant | abundance fitness
V7W | -1 ± 0.18
V7A | -0.65 ± 0.066
V7F | -0.547 ± 0.17
V7T | -0.77 ± 0.19
V7L | -0.322 ± 0.055
V7C | -0.293 ± 0.079
V7S | -0.866 ± 0.11
V7M | -0.646 ± 0.14
M13I | -0.149 ± 0.29
M13L | -0.089 ± 0.22
M13T | -0.638 ± 0.34
M13D | -0.944 ± 0.44
M13W | -0.606 ± 0.41
Q63C | -0.129 ± 0.066
Q63L | -0.276 ± 0.045
Q63P | -0.758 ± 0.2
Q63R | -0.115 ± 0.049
Q63T | -0.043 ± 0.055
Q63S | 0.011 ± 0.052
Q63V | -0.293 ± 0.043
Q63W | -0.467 ± 0.078
Q63M | -0.257 ± 0.084
Q63F | -0.232 ± 0.1
